Non-standard residues stand in square brackets, D forms with d. Phe(4-NO2) = N[C@@H](Cc1ccc([N+](=O)[O-])cc1)C(=O)O; Phe(4-CN) = N#Cc1ccc(C[C@H](N)C(=O)O)cc1; Phe(4-Cl) = N[C@@H](Cc1ccc(Cl)cc1)C(=O)O; Phe(4-F) = N[C@@H](Cc1ccc(F)cc1)C(=O)O; Phe(4-Me) = Cc1ccc(C[C@H](N)C(=O)O)cc1; hPhe = N[C@@H](CCc1ccccc1)C(=O)O

The Kd is the equilibrium constant for the complex coming apart.

For test [1], the target named is Full length IDOL (1–445) (UniProt Q8WY64). Kind of test: SPR; Biacore S200; 6× His-tagged full-length IDOL immobilized on an NTA chip (~6000 RU), peptides as analytes; 10 mM HEPES, 300 mM NaCl, 1 mM TCEP, 0.05% Tween 20, 4% DMSO, pH 8.0; saturation at the highest concentrations not observed.
The target of test [2] is T1, Full length IDOL (1–445), Q8WY64.
T1 chain: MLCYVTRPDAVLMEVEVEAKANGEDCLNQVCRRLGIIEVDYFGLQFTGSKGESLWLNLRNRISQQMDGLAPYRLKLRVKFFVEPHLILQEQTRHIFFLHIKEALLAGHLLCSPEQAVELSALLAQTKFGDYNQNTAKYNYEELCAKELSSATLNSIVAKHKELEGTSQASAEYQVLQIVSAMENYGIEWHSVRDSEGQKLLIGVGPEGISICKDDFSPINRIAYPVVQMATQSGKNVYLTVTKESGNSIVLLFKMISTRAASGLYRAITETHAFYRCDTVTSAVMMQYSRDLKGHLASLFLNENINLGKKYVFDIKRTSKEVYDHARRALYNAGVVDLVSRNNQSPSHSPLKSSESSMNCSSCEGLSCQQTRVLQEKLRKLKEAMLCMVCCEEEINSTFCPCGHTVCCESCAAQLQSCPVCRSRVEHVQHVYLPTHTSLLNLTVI
Kind of test: MST. The following applies: modification not given; NT-647-NHS dye (only the labelled copy in the MST assays).

Test [3] deals with Full length IDOL (1–445) (UniProt Q8WY64). Kind of test: MST; Monolith NT.115; 6× His IDOL labelled with NT-647-NHS dye at 50 nM, peptides titrated; 10 mM HEPES, 300 mM NaCl, 1 mM TCEP, 0.05% TWEEN-20, pH 8.0, 5% DMSO.

B1: cyclo-CTIFLL (peptide)
peptide: CTIFLL
modifications: cyclic backbone (cyclo-)
Molecule B1 registered a Kd in test [1] of 20.9 µM.

B2: RINGPep1 derivative with 4-fluoro-phenylalanine at position 3 (peptide)
chain: cyclo(CF[Phe(4-F)]LYT)
modifications: not fully specified
Consider B2, for which, in test [2], the Kd turned out to be 35.2 µM.

B3: RINGPep1 derivative with 4-nitro-phenylalanine at position 3 (peptide)
chain: cyclo(CF[Phe(4-NO2)]LYT)
modifications: not fully specified
The molecule B3 had a Kd in test [2] of 35.7 µM.

B4: cyclo-CFFLYT (peptide)
peptide: CFFLYT
modifications: cyclic backbone (cyclo-)
With B4, the Kd in test [3] and in test [1] was 38.5 µM in each case.

B5: RINGPep1 derivative with 4-chloro-phenylalanine at position 3 (peptide)
chain: cyclo(CF[Phe(4-Cl)]LYT)
modifications: not fully specified
The molecule B5 gave a Kd in test [2] of 12 µM.

B6: RINGPep1 derivative with 4-methy-phenylalanine at position 3 (peptide)
chain: cyclo(CF[Phe(4-Me)]LYT)
modifications: not fully specified
For B6, the Kd in test [2] was found to be 23.1 µM.

B7: RINGPep1 derivative with 4-cyano-phenylalanine at position 3 (peptide)
chain: cyclo(CF[Phe(4-CN)]LYT)
modifications: not fully specified
As for B7, in test [2], the Kd was 36.2 µM.

B8: RINGPep1 derivative with homo-phenylalanine at position 3 (peptide)
chain: cyclo(CF[hPhe]LYT)
modifications: not fully specified
For the molecule B8, in test [2], the Kd was 23.6 µM.

(Values after PMC6050537, “Inhibition of low-density lipoprotein receptor degradation with a cyclic peptide that disrupts the homodimerization of IDOL E3 ubiquitin ligase” (Chemical Science, 2018).)
